According to article PMC5949987:
Each block holds one substance with its values, some of them ahead of it.

Columns and labels:
cerulean–β2AR = cerulean–β2AR (UniProt P07550); test: calibrated confocal fluorescence intensities at the plasma membrane; HEK 293 cells expressing cerulean-β2AR and venus–mGs, 10 μM isoproterenol, steady state; venus and cerulean intensities calibrated with the standard protein cerulean–TM–venus; n = 17
β2AR–SmBit = β2AR–SmBit (UniProt P07550); test: split reporter (BiFC, NanoBiT); NanoLuc complementation in intact HEK 293 cells cotransfected with receptor–SmBit and LgBit–mG; total luminescence with furimazine against agonist concentration
β2AR–Rluc8 = β2AR–Rluc8 (UniProt P07550); test: FRET or BRET; intact HEK 293 cells with agonist; receptor–Rluc8 or receptor–Nluc as donor, NES–venus–mG as acceptor; net BRET; DPBS, 96-well plates

stoichiometry N (venus–mGs per cerulean–β2AR) (cerulean–β2AR): 1.17
Substance: venus–mGs (domain or fragment)

fold increase in luminescence intensity on agonist stimulation (β2AR–SmBit): < 20 fold
Substance: LgBit–mGs

time to dissociate after addition of the inverse agonist ICI 118,551 (β2AR–Rluc8): > 15 min
Substance: NES–venus–mGs (domain or fragment)
